Experiments:
jurkat细胞表面的DR5蛋白 = jurkat细胞表面的DR5蛋白 (UniProt O14763 56-440, limits assumed); assay: cell-based or functional assay
sDR5-Fc蛋白 = biological target: T1, sDR5-Fc蛋白 (UniProt O14763 56-182, limits assumed); assay: BLI (OCTET K2), sDR5-Fc 10 ug/ml captured on AHC sensors, 6C93D6 at 76-4.75 nM in solution
T1 construct: Immunogen and BLI ligand; not shown: it was captured on AHC (Anti-hIgG Fc Capture) sensors

人DR4抗原 = biological target: T2, 人DR4抗原 (human, UniProt O00220 24-239, limits assumed); assay: ELISA, DR4 coated, goat anti-mouse IgG-HRP, OD450
T2 construct: also called death receptor 4
T2 sequence (looked up): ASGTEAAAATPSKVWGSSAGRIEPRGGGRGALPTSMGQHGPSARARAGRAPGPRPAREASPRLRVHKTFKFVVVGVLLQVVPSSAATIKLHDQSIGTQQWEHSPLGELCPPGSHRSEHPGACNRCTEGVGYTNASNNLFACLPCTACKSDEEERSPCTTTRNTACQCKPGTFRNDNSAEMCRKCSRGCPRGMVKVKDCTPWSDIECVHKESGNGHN

sDR5-Fc-biotin = sDR5-Fc-biotin (UniProt O14763); assay: competition ELISA: sDR5-Fc-biotin 7.5 ug/ml preincubated with 6C93D6 30 ug/ml, added to coated human TRAIL (5 ug/ml); Streptavidin-HRP; the OD is the remaining binding of the complex to TRAIL

- 诱导HepaRG细胞凋亡的EC50 (1ug/ml交联剂 anti-mouse IgG Fc antibody; MTS/PMS, A490-A630) (jurkat细胞表面的DR5蛋白): 68.5 pg/mL
- 诱导HepaRG细胞凋亡的EC50 (无交联剂; MTS/PMS, A490-A630) (jurkat细胞表面的DR5蛋白): 1.1 µg/mL
- Kd (sDR5-Fc蛋白): 6.77 nM
- binding result (人DR4抗原): no binding
- OD450 (sDR5-Fc-biotin): 0.105
B1: 6C93D6抗体 (抗DR5的单克隆抗体) (antibody, V domains shown)
VH: EVQLQQSGPDLVKPGASVKISCKASGYSFTGHYMHWVKQSHGQSLEWIGRVNPNNGGTGYNQKFKDKAILTVDKPSSTAYMELRSLTSEDSAVYYCARNGAYYRSDGNYFDYWGQGTTLTVSS
VL: DIVLTQSTPSLAVSLGQRATISCRASESVDSYGNSFMHWFQQKPGQPPKLLIYRASNLESGIPARFSGSGSRTDFTLTINPVEADDVATYYCQQSNEDPYTFGGGTKLEIK
notes: Mouse hybridoma monoclonal antibody purified from ascites on Protein G
